# Results from publication PMC2699511.
# B1: poly(rA40) (ssRNA)
# RNA: AAAAAAAAAAAAAAAAAAAAAAAAAAAAAAAAAAAAAAAA
# Molecular target: GST-Vif wild type (HIV-1, UniProt P69723 1-192)
# Assay: EMSA
# Sequence of GST-Vif wild type (P69723 whole entry): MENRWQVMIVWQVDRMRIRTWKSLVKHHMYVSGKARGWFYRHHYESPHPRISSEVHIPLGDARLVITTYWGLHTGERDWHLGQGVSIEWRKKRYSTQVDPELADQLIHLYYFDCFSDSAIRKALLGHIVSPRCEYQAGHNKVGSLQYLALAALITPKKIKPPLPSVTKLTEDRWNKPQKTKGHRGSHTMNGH
binder,measurement,value
B1,binding result,binds
